Results published in patent US8299028B2, “Chimeric peptide antagonist for GPCR135 or GPCR142” (Janssen Pharmaceutica NV, priority 2007, dated 2012).

Key:
human GPCR135 = molecular target: T1, human GPCR135 (Homo sapiens, UniProt Q9NSD7); test: Agonist assay, inhibition of forskolin-induced β-gal expression in SK-N-MC/CRE-β-gal cells; format: cell-based; design: expressed in transfected cells; conditions: human GPCR135 agonist response, mean ± SEM; NA = no agonist activity observed
T1 sequence (Q9NSD7 1-469): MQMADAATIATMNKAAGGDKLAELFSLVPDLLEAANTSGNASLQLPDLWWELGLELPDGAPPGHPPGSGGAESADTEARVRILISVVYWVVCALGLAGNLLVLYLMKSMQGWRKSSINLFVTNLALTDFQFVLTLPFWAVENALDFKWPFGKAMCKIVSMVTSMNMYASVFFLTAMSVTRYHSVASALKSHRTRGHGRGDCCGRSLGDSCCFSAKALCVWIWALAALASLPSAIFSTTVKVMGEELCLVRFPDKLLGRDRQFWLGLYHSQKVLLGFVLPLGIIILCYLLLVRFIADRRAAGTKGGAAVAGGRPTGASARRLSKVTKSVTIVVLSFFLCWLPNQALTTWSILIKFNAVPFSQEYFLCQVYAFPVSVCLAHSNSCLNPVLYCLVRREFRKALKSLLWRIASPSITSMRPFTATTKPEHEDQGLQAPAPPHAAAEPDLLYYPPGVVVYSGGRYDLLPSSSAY
Description: (§1) FIG. 1 provides a characterization of mutant relaxin-3 peptides as ligands for human GPCR135, GPCR142, and LGR7. The truncated peptides were tested for their GPCR135 and GPCR142 agonist activity using SK-N-MC/CRE-β-gal cells expressing either human GPCR135 (A) or GPCR142 (B). Agonists for GPCR135 or GPCR142 inhibit forskolin induced β-galactosidase (β-gal) expression. The LGR7 agonist activity of the truncated peptides was tested using SK-N-MC/CRE-β-gal cells expressing Gαs-linked human LGR7 (C). Human relaxin-3 was used as positive control in both cases. β-gal expression was measured by colorimetric assay using CPRG as the substrate and reading the absorbance at 570 nm.
(§2) All peptides were tested for their GPCR135, GPCR142, and LGR7 agonist activities in SK-N-MC/CRE cells expressing the relevant receptors as described by Liu et al., 2005b. […] An increase in cAMP concentration in these cells is associated with increased β-gal expression, which can be measured using Chlorophenol Red-β-D-Galactopyranoside (CRGP) as a substrate and reading the optical absorbance at 570 nm. […] The results were analyzed using GraphPad Prism 4.0 software. […] The agonism and antagonism of peptides for rat LGR7 was assayed using a cAMP luminescence assay. […] The cAMP in the cells was measured with a cAMP detection kit (DiscoveRx HitHunter, Cat. #90-0041) according to the manufacturer's protocol. […]

human GPCR142 [1] = molecular target: T2, human GPCR142 (Homo sapiens, UniProt Q8TDU9); test: as above; format: cell-based; design: expressed in transfected cells; conditions: human GPCR142 agonist response, mean ± SEM; NA = no agonist activity observed
Description: as §1, §2

human GPCR142 [2] = molecular target: T2, human GPCR142; test: Radioligand binding assay, 125I-R3/I5 tracer, COS-7 cells expressing GPCR142; design: expressed in transfected cells; host or cells: COS-7
From the text: COS-7 cells in 24-well tissue culture plates transiently expressing GPCR135, GPCR142 or LGR7 were used in radioligand binding assays as described by Liu et al., 2005a, J. Biol. Chem., 280:292-300. ^125I-Relaxin-3/INSL5 (^125I-R3/I5), a radiolabeled chimeric peptide with the human relaxin-3 B-chain and the human INSL5 A-chain (Liu et al., 2005b), was used at a final concentration of 50 pM as the tracer to characterize the binding properties of all truncated relaxin-3 peptides for GPCR135 and GPCR142. ^125I-relaxin-2 (PerkinElmer Biosciences, Boston) was used at a final concentration of 50 pM to characterize the binding properties of the truncated peptides for the relaxin receptor (LGR7). The results were analyzed by GraphPad Prism 4.0 software (Graphpad, San Diego). The IC50 values, which are the ligand concentrations that inhibited 50% of the maximum specific binding, were then calculated.

T2 sequence (Q8TDU9 whole entry): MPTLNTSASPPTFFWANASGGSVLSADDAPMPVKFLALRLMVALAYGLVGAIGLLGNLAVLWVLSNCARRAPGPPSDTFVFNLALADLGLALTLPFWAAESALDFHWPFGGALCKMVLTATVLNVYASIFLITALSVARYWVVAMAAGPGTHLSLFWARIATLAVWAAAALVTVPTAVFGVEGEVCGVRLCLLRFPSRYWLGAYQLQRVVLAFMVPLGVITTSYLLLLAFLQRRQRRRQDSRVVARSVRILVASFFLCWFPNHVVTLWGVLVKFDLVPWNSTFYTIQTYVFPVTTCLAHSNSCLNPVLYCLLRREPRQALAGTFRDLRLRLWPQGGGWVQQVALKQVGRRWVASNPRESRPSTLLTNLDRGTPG

## R3(BΔ23-27)R: Relaxin-3 mutant: B-chain SEQ ID NO:15 (Gly23-Trp27 deleted plus C-terminal Arg), relaxin-3 A-chain SEQ ID NO:13
Human GPCR135
  EC50: > 1000 nM
Human GPCR142 [1]
  EC50: > 1000 nM
Human GPCR142 [2]
  affinity of human GPCR142: high affinities
